Test results from US20240410900A1 (Hoffmann-La Roche, published 2024).

Key:
[1] = molecular target: T1, anti-VEGF/ANG2 antibody (IgG1 subclass with mutations P329G/L234A/L235A); assay: ELISA assay B, tracer M1.7.10-Dig, target 100 ng/mL
T1 construct: Positions are EU numbers; also called sample 2; antibody 2
Procedure: (§1) Biotinylated anti-PG Fc-region antibody or biotinylated anti-AAA Fc-region antibody, respectively, was bound to the wells of a streptavidin-coated multi-well plate (SA-MTP) to produce a capture plate. Excess of unbound antibody was removed by washing. Sample/standard antibodies spiked in human and cynomolgus monkey serum (10% final concentration) was added to wells of the SA-MTP multi-well plate coated with the capture plate and incubated for 1 hour at room temperature. After washing, the wells were incubated with digoxygenylated anti-human kappa antibody M1.7.10 (see e.g. WO 2011/048043, incorporated herein by reference). After washing the bound digoxygenylated anti-human kappa antibody complex was incubated with a horseradish peroxidase (HRP) labelled anti-digoxygenin antibody. After another washing step, an ABTS solution was added to the wells and incubated. The product of the color reaction was measured by Elisa reader at 405 nm wavelength (reference wavelength: 490 nm). Absorbance values of each sample or standard were determined in triplicates.

[2] = molecular target: T2, anti-VEGF/ANG2 antibody (IgG1 subclass with mutations P329G/L234A/L235A/I253A/H310A/H435A); assay: as above
T2 construct: Format of the bispecific antibody not described; Positions are EU numbers, not positions on the UniProt entry; also called sample 1; antibody 1
Procedure: as §1

[3] = molecular target: T3, anti-P-Selectin antibody (IgG4 subclass with mutations S228P/L235E); assay: as above
T3 construct: Positions are EU numbers; also called sample 4; antibody 4
Procedure: as §1

[4] = molecular target: T4, anti-VEGF/ANG2 antibody (wild-type IgG1 subclass) (UniProt P01857-1 1-330 = IgG part); assay: as above
T4 construct: also called sample 5; antibody 5
Procedure: as §1

[5] = molecular target: T5, anti-IGF-1R antibody (IgG1 subclass with mutations I253A/H310A/H435A); assay: as above
T5 construct: Positions are EU numbers; also called sample 3; antibody 3
Procedure: as §1

[6] = molecular target: T1, anti-VEGF/ANG2 antibody (IgG1 subclass …); assay: ELISA assay B, tracer M1.7.10-Dig, target 6 ng/mL
Procedure: as §1

[7] = molecular target: T2, anti-VEGF/ANG2 antibody (IgG1 subclass …); assay: ELISA assay B, tracer M1.7.10-Dig, target 6 ng/mL
Procedure: as §1

[8] = molecular target: T3, anti-P-Selectin antibody (IgG4 subclass …); assay: ELISA assay B, tracer M1.7.10-Dig, target 6 ng/mL
Procedure: as §1

[9] = molecular target: T4, anti-VEGF/ANG2 antibody (wild-type IgG1 …); assay: ELISA assay B, tracer M1.7.10-Dig, target 6 ng/mL
Procedure: as §1

[10] = molecular target: T5, anti-IGF-1R antibody (IgG1 subclass …); assay: ELISA assay B, tracer M1.7.10-Dig, target 6 ng/mL
Procedure: as §1

[11] = molecular target: T1, anti-VEGF/ANG2 antibody (IgG1 subclass …); assay: ELISA assay C, tracer FcγRI-Dig, target 50 ng/mL
[12] = molecular target: T2, anti-VEGF/ANG2 antibody (IgG1 subclass …); assay: ELISA assay C, tracer FcγRI-Dig, target 50 ng/mL
[13] = molecular target: T3, anti-P-Selectin antibody (IgG4 subclass …); assay: ELISA assay C, tracer FcγRI-Dig, target 50 ng/mL
[14] = molecular target: T4, anti-VEGF/ANG2 antibody (wild-type IgG1 …); assay: ELISA assay C, tracer FcγRI-Dig, target 50 ng/mL
[15] = molecular target: T5, anti-IGF-1R antibody (IgG1 subclass …); assay: ELISA assay C, tracer FcγRI-Dig, target 50 ng/mL
[16] = molecular target: T1, anti-VEGF/ANG2 antibody (IgG1 subclass …); assay: ELISA assay C, tracer FcγRI-Dig, target 100 ng/mL
[17] = molecular target: T2, anti-VEGF/ANG2 antibody (IgG1 subclass …); assay: ELISA assay C, tracer FcγRI-Dig, target 100 ng/mL
[18] = molecular target: T3, anti-P-Selectin antibody (IgG4 subclass …); assay: ELISA assay C, tracer FcγRI-Dig, target 100 ng/mL
[19] = molecular target: T4, anti-VEGF/ANG2 antibody (wild-type IgG1 …); assay: ELISA assay C, tracer FcγRI-Dig, target 100 ng/mL
[20] = molecular target: T5, anti-IGF-1R antibody (IgG1 subclass …); assay: ELISA assay C, tracer FcγRI-Dig, target 100 ng/mL
[21] = molecular target: T4, anti-VEGF/ANG2 antibody (wild-type IgG1 …); assay: ELISA assay C, tracer FcγRI-Dig, target 13 ng/mL
[22] = molecular target: T5, anti-IGF-1R antibody (IgG1 subclass …); assay: ELISA assay C, tracer FcγRI-Dig, target 13 ng/mL
[23] = molecular target: T5, anti-IGF-1R antibody (IgG1 subclass …); assay: ELISA assay B, tracer M1.7.10-Dig, target 3 ng/mL
Procedure: as §1

Row | Binder | signal [OD405 nm] [1] | signal [OD405 nm] [2] | signal [OD405 nm] [3] | signal [OD405 nm] [4] | signal [OD405 nm] [5] | signal [OD405 nm] [6] | signal [OD405 nm] [7] | signal [OD405 nm] [8] | signal [OD405 nm] [9] | signal [OD405 nm] [10] | signal [OD405 nm] [11] | signal [OD405 nm] [12] | signal [OD405 nm] [13] | signal [OD405 nm] [14] | signal [OD405 nm] [15] | signal [OD405 nm] [16] | signal [OD405 nm] [17] | signal [OD405 nm] [18] | signal [OD405 nm] [19] | signal [OD405 nm] [20] | also measured
1 | anti-AAA variant Fc-region antibody M1.6.22 (antibody, V domains shown, Murine variable domains; also called M1.6.22-Bi) VH: EVQLVESGGDLVKPGGSLKLSCAASGFTFSSYGMSWVRQTPDKRLEWVATISSGGSYIYYPDSVKGRFTISRDNAKNTLYLQMSSLKSEDTAMYYCARLGMITTGYAMDYWGQGTSVTVSS VL: DVLMTQTPLSLPVSLGDQASISCRSSQTIVHSTGHTYLEWFLQKPGQSPKLLIYKVSNRFSGVPDRFSGSGSGTDFTLKISRVEAEDLGVYYCFQGSHVPYTFGGGTKLEIK | 0.21 OD405 nm | 0.052 OD405 nm | 0.051 OD405 nm | 0.061 OD405 nm | 2.9 OD405 nm | 0.053 OD405 nm | 0.039 OD405 nm | 0.04 OD405 nm | 0.039 OD405 nm | 2.73 OD405 nm | 0.057 OD405 nm | 0.077 OD405 nm | 0.054 OD405 nm | 0.067 OD405 nm | 1.06 OD405 nm | 0.076 OD405 nm | 0.079 OD405 nm | 0.069 OD405 nm | 0.076 OD405 nm | 2.1 OD405 nm | signal [OD405 nm] [21]: 0.07 OD405 nm; signal [OD405 nm] [22]: 0.175 OD405 nm; signal [OD405 nm] [23]: 2.26 OD405 nm
2 | anti-PG variant Fc-region antibody M1.3.17 (antibody, V domains shown, Monomeric, bivalent full-length antibody with murine variable domains; Biotinylated when used as capture antibody; also called anti-PG antibody clone 1.3.17; M1.3.17-Bi) VH: EVKLLESGGGLVQPGGSLKLSCAASGIDFRRYWMNWVRQAPGKGLEWIGEIDPDSSTINYTPSLKDKFIISRDNAKNTMYLQMRKVRSEDTALYYCARPYDYGAWFAYWGQGTLVTVSA VL: QAVVTQESALTTSPGETVTLTCRSTTGAVTTSNYANWVQEKPDHLFTGLIGGTNKRAPGVPARFSGSLIGDKAALTITGAQTEDEAIYFCALWYSDHWVFGGGTKLTVL | 0.216 OD405 nm | 0.035 OD405 nm | 0.048 OD405 nm | 0.043 OD405 nm | 0.05 OD405 nm | 0.196 OD405 nm | 0.035 OD405 nm | 0.048 OD405 nm | 0.046 OD405 nm | 0.045 OD405 nm | 1.21 OD405 nm | 1.17 OD405 nm | 1.15 OD405 nm | 1.16 OD405 nm | 1.21 OD405 nm | 1.22 OD405 nm | 1.19 OD405 nm | 1.17 OD405 nm | 1.18 OD405 nm | 1.2 OD405 nm | signal [OD405 nm] [21]: 1.17 OD405 nm; signal [OD405 nm] [22]: 1.21 OD405 nm; signal [OD405 nm] [23]: 0.047 OD405 nm
3 | anti-PG variant Fc-region antibody M1.7.24 (monomeric, bivalent) (antibody, V domains shown, Full-length Y-shaped antibody with murine variable domains; Biotinylated when used as capture antibody; also called anti-PG antibody clone 1.7.24; M1.7.24-Bi) VH: EVKLLESGGGLVQPGGSLKLSCAASGFDFSRYWMNWVRQAPGKGLEWIGEITPDSSTINYTPSLKDKFIISRDNAKNTLYLQMIKVRSEDTALYYCVRPYDYGAWFASWGQGTLVTVSA VL: QAVVTQESALTTSPGETVTLTCRSSTGAVTTSNYANWVQEKPDHLFTGLIGGTNKRAPGVPARFSGSLIGDKAALTITGAQTEDEAIYFCALWYSNHWVFGGGTKLTVL | 3.23 OD405 nm | 0.057 OD405 nm | 0.05 OD405 nm | 0.047 OD405 nm | 0.098 OD405 nm | 2.98 OD405 nm | 0.053 OD405 nm | 0.037 OD405 nm | 0.038 OD405 nm | 0.039 OD405 nm | 0.094 OD405 nm | 0.084 OD405 nm | 0.066 OD405 nm | 0.066 OD405 nm | 0.095 OD405 nm | 0.082 OD405 nm | 0.05 OD405 nm | 0.08 OD405 nm | 0.073 OD405 nm | 0.11 OD405 nm | signal [OD405 nm] [21]: 0.057 OD405 nm; signal [OD405 nm] [22]: 0.058 OD405 nm; signal [OD405 nm] [23]: 0.046 OD405 nm
